The DeepSol protein solubility set

Assay: soluble on expression in E. coli; label from the status in PepcDB or PDB records

Soluble on expression in E. coli, not soluble:
MGSDKIHHHHHHMEILSVGEKIKRARIYKRLTLKDICDDKVSVSKMSCIENGKITPDNEILEFVAKKLNVALDYLKYDVKDQFQSNLDNLKDIEEGKKDEYLRYNVYYAEQYEYYDIAFQFMHELFNLYVNKNKLDIVQSLTSEYYDICRKVTDCDNRSMYNLDIGKYLLASREYRQAINYYSRVRKELKTGFSENKKRIKMLIESYYYETLSYILCEDYDNAYELEKELLELIEYVDTDNQHAKIYSVMMFLCLKKNIDQFDYYKEKIENYCDINSEIKARVMYVCALKMINDEKVEEAKGYIAKALEQFQGKIENKYIPFIVELVNEVSRRNNLERYRGICDLILDYSIGIENSVLMERCYYLKSRIFKASNDLESYEMYMNLALDLLIKSGNEDDIYTRYMEMGNMYSTLGNVKDALRYFNLAINMSNKM, MGSDKIHHHHHHMEINKIYCMDCLEGMKQLKDKTVDVVVTSPPYNIGIKYNKYSDNLSREDYLNWIEEVVKEIKRVLKDDGSFFINVGYTAKDPWIAFDVANVIRKHFKLQNTIHWVKSIAIQKEDVGNYPNIIGDIAVGHYKPINSDRFLSIMHEYIFHFTKNGNVKLDKLAIGVPYQDKSNIKRFNRKGDLRDRGNTWFIPYETIQSKEKERPHPATFPPKLPEMCIKLHGVKKTNLVLDPFMGIGSTAIACIRLGIDYIGFEIDEYYCRVAEERIKKELLKTDGKFDNVKNKNIITLDAFI, MGSDKIHHHHHHMEKFDVIVVGGGPAGLSAAISAAQAGMKTAVIERGDYPGTKNVMGGVLYTEATNEVVPDFWKEAPLERPVIEQRYAFLSKDEILSAGYRDPAWGQPPYNAHTVLRVKFDRWLADQAVKAGVMIITETLVEDLLYHGDDVVGVRTGRAEGDLGAQVVILAEGANNFLACKAGLAKPLRPENMAVVVKEIIELPPEKIEDRFCLEPHEGATIELFGDSTDGMMGTSFIYTNKNSLSIGVGAMVHSMSEKGWSPNDLLENLKAKPYVKRLLQGGETKEYLAHLIPEGGYNAIPKLYRQGVMVVGDTAMFVNGLNREGSNLAMISGKIAGKVAAEAIQSGDLSAHGMSVYESRLRDSFVIKDLYKFRKLMPFIESNPHLLGQYPEILNQAARMYFTADGTPKAQVFSNIMDMMFKKRTKTGLVKDMFNAWRALK, MGSDKIHHHHHHMEKLEKTVDMNIQQMINLSVLELVKLGLKYGIFKAVSKKISYIDLLNQVDVPNKPLLKKLIDHLKLLGIIEETPTHLLLNSFSYEIRFPKEEHMYLLPDWIPSFEEIYRMVDFALITPNHPHVLMDFDKDADFWDLRLSSTFHEAYRILIAKLGEIGEGSRVLDIGCGSASPAYFGKLVGEEGEYVGVDYSPALLEIAKNRTEGLPVKLKEMDASLIKPKNKYDVAIMSFVLEYIENRRSALRNALDSLESGGKLIIVDAFKDEFRNVEALEFFEGLNSAFREYPSKKYIKEVILDEGFEVKFGDYGKAILLIEKL, MGSDKIHHHHHHMEKSSIYGLTWTNLTEWLEAHGQKKFRATQVWDWLYRKRVKTFEEMSNVPKETIELLTANFVMNTLEEQVVQESTDGTTKYLFKLSDGNLIETVMMKQEYGLSVCVTTQVGCNIGCTFCASGLLKKSRDLTAGEIVEQIMNVQHYLDGRNLEERVSHVVVMGIGEPFDNYDNVMDFLRVINHDKGLAIGARHITVSTSGLAPRIIDFANEDFQVNLAISLHAPNNELRTSIMRINKTYSIEKLMEAIHYYVNKTNRRITFEYIMLKGVNDHKKEALELAALLGEHRHLAYVNLIPYNPVDEHIDYERSTKEDVLAFYDTLKKNGINCVIRREHGTDIDAACGQLRSKQIKRVGVRERMKQKQAAAEE, MGSDKIHHHHHHMELKARAVGVEIIPKGKIIYYSVPNGDEYERGDLVLVLGDFGLEVGKVLIPPREVVIDEVGYELKAVIRKLTDEDLEQYRKNVEDALKAFQICKQKIKEHGLPMKLLYAKYTFDRTRLIFFFSAEGRVDFRELVRDLAKIFKTRIELRQVGVRDEMKFFGGLGLCGLPTCCSTFLREFTSVTLKHAKKQQMMINPAKISGPCRRLLCCLTYEYDFYEKELEGIPDEGSTITYEGKRYKVVNVNVFLRTVTLFSEQEGEMIKLPFDYFRKGE, MGSDKIHHHHHHMELKKLMEHISIIPDYRQTWKVEHKLSDILLLTICAVISGAEGWEDIEDFGETHLDFLKQYGDFENGIPVHDTIARVVSCISPAKFHECFINWMRDCHSSDDKDVIAIDGKTLRHSYDKSRRRGAIHVISAFSTMHSLVIGQIKTDEKSNEITAIPELLNMLDIKGKIITTDAMGCQKDIAEKIQKQGGDYLFAVKGTQGRLNKAFEEKFPLKELNNPEHDSYAISEKSHGREEIRLHIVCDVPDELIDFTFEWKGLKKLCVAVSFRSIIAEQKKEPEMTVRYYISSADLTAEKFATAIRNHWHVENKLHWRLDVVMNEDDCKIRRGNAAELFSGIRHIAINILTNDKVFKAGLRRKMRKAAMDRNYLASVLAGSGLS, MGSDKIHHHHHHMENKPFIFGVATSGDNFTDREKETERLLLNFQHGVNTVLISPRRWGKTSLVQKACHLAQSDKLKVVYLDIFSCRSDRDFYDAFAAAILKQTSSKLDEWLENTKLFLSRISPKISIGTDPMTDFSISLEMNPQSNDVDEILQLPEKIAQKKGYNIVVCIDEFQQIAEFKDSKTFQKRLRSVWQLQKSVSYCLFGSKKHLMNELFEKKSLPFYKFGDAIYLPKIGTCDWINYICGRFEATGKQISKELAEKICQRVDNHSSYVQQLAWLVWIHTDKVATEQNFEEAYQDIIDQNTPLFEKQTESLTTYQMNFLRAILDGVHSEFTTQEILQKYKLGSSANVSIVKRALVKKELIEIEKRKVIIPDPVMKVWLKKELGGV, MGSDKIHHHHHHMEPQWDDMKVFLAVARESSLSGAGRVLKMDPATVGRRVARFEAALKTSLFVKSPQGYALSAAGDRLLGHAEAAELAMRAGEEALTGPSDTLSGQIRIGAPDGCANYILPQVCAAISKDNPDLDIQVVALPRVINLSRREADMAVTVSAPTAGKLLVQKITDYHLHLAATRHYLRDNHPIEKLEHLRDHRMIGYIPDMIFDRELDYLNDLGIERVSLASNSVSVQIKMLAEGSALGVVHDFSLPSHRTLRKVLKEEFSLTRSFYLVRHQGDQRSDRLNRFAEALSAGIRAEVERLEGLT, MGSDKIHHHHHHMEQATRTIYSEYAAYPETQGIIAVEKRQPRDSLTDQFDVLLLVITRDPSVEWTVKHYRLNTLRVSLHLVHEQVLSRWLILNANRRAVHWVSEGTIIFERNDYLTDLKKQLRNFPETERCLQMSLSFAKLLRRFQDGRNLFSRGNYYDAYTHVHHALHHLARLSVLEKGAHPEVVVWEQARLDDPDVYKLYEQLLLSEETLEQRIHLALIGLEHLLQSKVLSGGKYLFEVMRERDRPWTMHELMEESRLTELKVDLGSLVDFFIRKGLIRISYQRTKGLGVELVTYEPVV, MGSDKIHHHHHHMEQINHQWLPHLSKEIVEDARGPEFDAYLVALEGWRRGLTLRWHTKDSEAFREIKTWFVDRPGKLFSLRLEEKTHYFFRTRGDKVTNEAVAIGADKEKTKEYLAKAGIPIPEGRRFVAEIEDDEIISYAAEIGYPLVVKPTDGSFGRGVVTNIEDEVTFAEQLRHVRHVLNYKDVIVERHVAGKDYRLYVVGDKVVAAIERIPANVVGNGKQTIQELIEAKNEERQKNPRLISCPIKLDQEMKNHLAIQGYGLDTIPEDGEMVFLTNKSNISIGGDPVDQLDSLPEEVKQLAVQALQAVPQLPHGAVDILYDDKQPVEEGAVVLELNPTAQIGSLVFPMKGIARDVPAAIIDYYFPETKGMNGQKSRFYFDFSDVLEPLVTKTASVTTVSAAPLGEVYGKKYTVTGDVQGIDYHRGLRKQAFERKLSGFVKNLENGNIEVIVMGTDPESVNDFKQAIFEDPERSDVVDVFEESWEEPVKVGFEVKADLKMQVDQLKKMKLELETVQKDLKEAERKNIKYKKSLTWRMTLPFRKTLDVLKYFKRK, MGSDKIHHHHHHMEQTTQTQLVEIQQVVLRMSKYFVAFCEEHNLTCYFCGGGCIGAIRSQGFIPWDDDLDFFMPRPDYEKLKVLWPKYADTECYPLLVASKTYNDHNSFMTIRDAQTTFIKTYQDGLAIPHGIPIDIFPLDGAPKGNFQRKKQKIWALIYALFCSQVVPEKHGGILATGSRVLLNIFPSKKVRYHIWRFAEKRMTKYSFGSTPYVTELCVGPRYMGNIYHLEDFKSAIFVPFEDTKMPIPVGYKRYLTEVFGDYMQLPPEEDRQPHHEALIVDTKKSYTEYLKK, MGSDKIHHHHHHMERFPYEKLPESELKELKELGRLCRGDILKMTYIANSGHPGGSMSSIDLYLTVFKYAKLRPVDDPARDRIVISHGHTSPGVYAAMARLGFVDLDEVLAGFRHPASVFEGHVTRGVGIIDWTTGNLGQGLSAGLGFALASRFTGKDYHVFVLMSDAEQAKGQVAEARRVAKKYGVTNLTVIIDYNDAQISGRARDVMPVNIKENYLADGWRVIEIDGHDYEQIYLALKEAVEDELNPVAIIAKTVMGKGVSFMENEVKYHGKPLNREELEKALAELGIENDVDVYIEKRKQLPVEKHKKVYKTYPIKIDTGEPITYTSPTDNRSAFGKAILDLVKKNVNNPETTPIVAVDCDLKGSVKLDLLDKEFPERLLEVGVQEHNAAAMAGALSAEGVITFFADFGVFGISETYNQHRLNAINGTNLKVVVTHCGLNVGEDGKTHHGLDYVSGPMNWYGFKVIVPGDPNQTDRVVRYAAKEYGNFVIAMGRSKLPIILDENGKPFFGEGYTFEYGKIDVVRKGDDAVIITYGSTLCEAVNAADELKKEGVNVAVLNVSCPVDLDIETLKMVDGKPVLVVEDHNVFTGLGSFLGTTLLENGIIPKKYVRVGVPEFAVSGSYTMLYKLYGLDKDGIISRLREML, MGSDKIHHHHHHMERLQALEAWAARQLGQETVDIAPASADASFRRYFRVTAKGRDYIVMDAPPAHEDCGPFIAVARLFGDAGVHVPEVLAQDLDQGFLLLTDLGHTTYLSALNESTARELYLAANDALIRIQLASRPGVLPDYDRALLTRELMLFPEWYVAKHLGVELNAAQRATLDTVFERLLTNNLAQPQVYVHRDWHSRNLMVSDPNPGILDFQDAVFGPITYDLASIYRDAYIQWDEERQLDWVIRYWEKARAARLPVAADFGDFWRDFEWMGAQRHLKVLGIFARLYHRDGKDGYLKDMPLVMHYLRSVCGRYDELKPLLLLLDALQDRQPQAGYTF, MGSDKIHHHHHHMERSWTINGRFLAQPLTGVQRYAFEIVRALDELIVNQPLLASRLKIELLVPRDAKVPSLRAISTRAIAIAPMHGHLWEQAALAAHVRGGLLSFCNTGPLSVRKQILCIHDVNTRTYPQSYSLPFRLLYRTLLPALGRRVAAVATVSRYSAGELVRHRICGPDKITVIPNGHEHAASWKPRHSQRTRAVAGRDTIVVIGSAIAHKNTGLIIGMAERLAAVGLRIAVVGMSDARVYRTSGRKESASNVTWLGRLSDEELAALLQDCLCLAFPSFIEGFGLPPLEAMAIGCPIVVSNRASLPEICGEAALYASPNDAEAWFDRFMRVRNMPDVRDEMIGIGRMQASNFQWKASASRYLDIMAVLDGMSKPSGGPVAVSIA, MGSDKIHHHHHHMETPMTMSQVDAVVRDPASVVTAIESRFSCRAFSPDRPVSRQQVEEILRIARCAASSTNTQPWKVYVLQGDRRDALVAQVCAAHDATRADSSLTAEYGEVDGYYPSEWVSPYIDRRRHNGWTLYGHLGIGKGEKDKMHAQGQRNYRFFDAPVGLMFTIDRVMGRGSLIDYGMFLQTLMLAARALGLHTCPQAAWNNCAKIVLPFIGAGANEMLVCGMALGYADQSAPVNTYRTPRETVESFTRWI
